“Also recorded” adds a separate entry of the source. Where no end group is shown, it is not given here. [ ]: non-standard residue; d: D form.
What was measured:
tau K12 [1] = molecular target: T1, tau K12 (Homo sapiens, UniProt P10636); assay: Fibril formation inhibition assay of tau K12 monitored by ThS fluorescence; assay type: biochemical; conditions: for effect on K12 fibrillation, comparison between peptides: ThS fluorescence, ratio not given (FIG. 4); for effect on tau K12 fibrillation (ThS fluorescence): peptide at equimolar ratio with K12; for ratio (concentration) dependence of the delay of K12 fibrillation (lag time): various molar ratios of peptide to K12 (FIGS. 5, 6); for average lag time of K12 fibrillation: peptide at equimolar ratio with K12 (FIG. 10b)
T1 construct: starting Met residue (added initiator methionine before Q244) (N); made in house; host or cells: E. coli BL21 (DE3), vector pNG2 (pET-3b derivative)
T1 sequence (P10636 186-305 isoform P10636-2): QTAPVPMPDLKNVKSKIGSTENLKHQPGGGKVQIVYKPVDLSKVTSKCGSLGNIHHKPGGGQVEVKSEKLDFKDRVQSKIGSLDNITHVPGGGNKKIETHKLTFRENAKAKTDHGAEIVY
Experimental: 150 μL reactions containing 50 or 100 μM tau K12, as determined by the micro BCA Protein Assay Kit (Pierce), were incubated in 250 mM sodium phosphate buffer pH 7.4 with 1 mM DTT, 3 μM heparin, and 10 μM ThS (Friedhoff et al., 1998; Perez et al., 1996; Schweers et al., 1995). Peptides were dissolved in 250 mM sodium phosphate buffer pH 7.4 and added at various molar ratios to the reaction mixtures. The fluorescence signal was measured every 15 minutes with excitation and emission wavelengths of 440 and 510 nm, respectively, at 37° C. with continuous shaking at 900 rpm with a diameter of 1 mm in a Varioskan plate reader (Thermo Fisher Scientific, Inc.). Reactions were split into a minimum of 3 replicates in Nunc optically clear bottom, 96-well black plates, sealed with Corning pressure seal tape and monitored for various times. Each experiment was repeated a minimum of four times yielding the same results.

tau K12 [2] = molecular target: T1, tau K12; assay: Electron microscopy of tau K12 fibril formation in the presence of peptides; assay type: biochemical; conditions: K12 incubated with peptide, with or without ThS
Experimental: 5 μL of sample were applied to glow discharged 400 mesh carbon-coated formar films on copper grids (Ted Pella, Inc.) for three minutes. Grids were rinsed twice with distilled water and stained with 1% uranyl acetate for 90 seconds. Grids were examined in a Hitachi H-7000 transmission electron microscope at 75 kEv.

amyloid β protein = amyloid β protein (Homo sapiens, UniProt P05067); assay: Amyloid beta fibrillation monitored by thioflavin T fluorescence; assay type: biochemical; conditions: thioflavin T fluorescence (FIG. 4b)
Chain of amyloid β protein (P05067 672-713 limits assumed): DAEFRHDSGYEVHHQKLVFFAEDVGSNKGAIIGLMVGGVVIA
From the text: In FIG. 4(b), fibril formation of amyloid beta (abeta) protein is not delayed by addition of D-TLKIVW. Tau K12 fibrillation is monitored by ThS fluorescence and amyloid beta fibrillation is monitored by thioflavin T fluorescence.

tau K12 construct = tau K12 construct (UniProt P10636-8 244-274; P10636-8 306-394, limits assumed); assay: cell-based or functional assay
Chain of tau K12 construct (P10636 other isoform, or with tags, fused parts or gaps limits assumed): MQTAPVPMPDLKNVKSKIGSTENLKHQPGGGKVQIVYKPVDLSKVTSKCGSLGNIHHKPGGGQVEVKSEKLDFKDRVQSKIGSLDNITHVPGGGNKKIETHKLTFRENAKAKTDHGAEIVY

D-DYYFEF ([dD][dY][dY][dF][dE][dF]) [D-amino acid peptide designed to pack against the bottom of the VQIVYK atomic structure]
effect on K12 fibrillation, comparison between peptides (tau K12 [1]): improved capping over D-DYYFEK | effect on tau K12 fibrillation (ThS fluorescence) (tau K12 [1]): no inhibition | ratio (concentration) dependence of the delay of K12 fibrillation (lag time) (tau K12 [1]): delayed K12 fibrillation in a concentration dependent manner; also recorded: some effect at delaying fibrillation

D-DYYFEK ([dD][dY][dY][dF][dE][dK])
effect on tau K12 fibrillation (ThS fluorescence) (tau K12 [1]): all peptides except D-DYYFEK systematically delayed fibrillation

D-GVIGIA (G[dV][dI]G[dI][dA]) [D-amino acid control peptide, a stereoisomer of an L-amino acid peptide known to aggregate on its own, reference compound]
effect on tau K12 fibrillation (ThS fluorescence) (tau K12 [1]): no effect on fibrillation; also recorded: without any effect on fibrillation

D-LKTWIV ([dL][dK][dT][dW][dI][dV]) [scrambled peptide of D-TLKIVW, reference compound]
effect on K12 fibrillation, comparison between peptides (tau K12 [1]): does not delay the onset of K12 fibrillation

D-TIKWVL ([dT][dI][dK][dW][dV][dL]) [scrambled peptide of D-TLKIVW, order of residues scrambled in one face]
effect on K12 fibrillation, comparison between peptides (tau K12 [1]): does not delay the onset of K12 fibrillation | effect on tau K12 fibrillation (ThS fluorescence) (tau K12 [1]): some inhibitory effect; also recorded: not nearly as effective as D-TLKIVW

D-TIWKVL ([dT][dI][dW][dK][dV][dL]) [scrambled peptide of D-TLKIVW, reference compound]
effect on K12 fibrillation, comparison between peptides (tau K12 [1]): does not delay the onset of K12 fibrillation

D-TLKIVW ([dT][dL][dK][dI][dV][dW]) [D-amino acid peptide designed to pack against the top of the VQIVYK fibril-like structure of tau]
molar ratio of peptide relative to tau K12 at which a marginal effect on delay of fibrillation was observed (tau K12 [1]): 50 fold less peptide relative to tau K12 concentration | time without ThS signal (tau K12 [1]; 50 μM K12, peptide at 2-fold and 5-fold excess, some of the samples): > 300 h | time without fibril formation (tau K12 [1]; 2-fold or 5-fold excess peptide, some experiment replicates): more than 2 weeks | effect on K12 fibrillation, comparison between peptides (tau K12 [1]): the most effective peptide; also recorded: delays fibrillation relative to K12 alone | effect on tau K12 fibrillation (ThS fluorescence) (tau K12 [1]): inhibition for several days | average lag time of K12 fibrillation (tau K12 [1]): over 140 hours | effect on tau K12 fibrillation (ThS fluorescence) (tau K12 [1]; listed as D-amino acid peptide TLKIVW): prevents the formation of K12fibrils | ratio (concentration) dependence of the delay of K12 fibrillation (lag time) (tau K12 [1]): delayed longer by higher concentrations of the D-peptide | fibril formation of K12 seen by electron microscopy (tau K12 [2]): there were no fibrils; also recorded: prevents fibril formation; also recorded: fibrils do not form | effect on fibril formation of amyloid beta protein (amyloid β protein): no effect on fibrillation; also recorded: not delayed

D-TWKLVL ([dT][dW][dK][dL][dV][dL]) [D-amino acid peptide designed to pack against the top of the VQIVYK fibril structure]
molar ratio of peptide relative to tau K12 at which a marginal effect on delay of fibrillation was observed (tau K12 [1]): 10 fold less peptide relative to tau K12 concentration | duration of effective inhibition of K12 fibrillation (tau K12 [1]; 5-fold excess peptide): about 1 week | peptide concentration relative to K12 at which an inhibitory effect is still seen (tau K12 [1]; ThS fluorescence (FIGS. 5, 6)): 10 % the molar concentration of K12 | delay of K12 fibrillation (tau K12 [1]; peptide at equimolar ratio with K12 (FIG. 3a)): more than 30 hours | ratio (concentration) dependence of the delay of K12 fibrillation (lag time) (tau K12 [1]): still were inhibiting fibrillation of K12 | fibril formation of K12 seen by electron microscopy (tau K12 [2]): Fibrils do not form | fibril formation of K12 seen by electron microscopy (tau K12 [2]; listed as DTWKLVL): there were no fibrils

D-YVIIER ([dY][dV][dI][dI][dE][dR]) [D-amino acid peptide designed to pack against the bottom of the VQIVYK fibril structure]
effect on tau K12 fibrillation (ThS fluorescence) (tau K12 [1]): some delay | ratio (concentration) dependence of the delay of K12 fibrillation (lag time) (tau K12 [1]): delayed K12 fibrillation in a concentration dependent manner; also recorded: clear ratio dependence

L-TLKIVW (SEQ ID NO: 3) [L-amino acid enantiomer of D-TLKIVW]
effect on K12 fibrillation, comparison between peptides (tau K12 [1]): able to inhibit fibril formation, but not nearly as long as D-TLKIVW | effect on tau K12 fibrillation (ThS fluorescence) (tau K12 [1]): able to inhibit fibril formation, but not nearly as long as D-TLKIVW; also recorded: not nearly as effective as D-TLKIVW | average lag time of K12 fibrillation (tau K12 [1]): about 40 hours

L-VQIVYK (SEQ ID NO: 1) [steric zipper segment of tau, used as control peptide, reference compound]
effect on tau K12 fibrillation (ThS fluorescence) (tau K12 [1]): no significant effect on fibrillation | effect on tau K12 fibrillation (ThS fluorescence) (tau K12 [1]; listed as VQIVYK): no effect at equimolar concentrations or in excess

[dT][dW][dK][dL][dV][dL] (designed binder) [D-TWKLVL]
delay of K12 fibrillation at equimolar ratio (ThS fluorescence) (tau K12 construct): > 30 h | duration of inhibition of K12 fibrillation at 5-fold excess peptide (tau K12 construct): ~1 week | molar amount of peptide relative to tau K12 construct to delay fibrillation (tau K12 construct): 10 fold less peptide than K12

[dT][dI][dK][dW][dV][dL] [D-TIKWVL]
average lag time of K12 fibrillation (ThS fluorescence), equimolar ratio (tau K12 construct): 54 h

[dT][dL][dK][dI][dV][dW] (designed binder) [D-TLKIVW]
average lag time of K12 fibrillation (ThS fluorescence), equimolar ratio (tau K12 construct): > 140 h | molar amount of peptide relative to tau K12 construct to delay fibrillation (tau K12 construct): 50 fold less peptide than K12 | time without K12 fibrils at 2-fold or 5-fold excess peptide (tau K12 construct): > 2 weeks
